Substitutions are numbered along the chain they refer to. Names may count otherwise. “And” between values parts separate entries of the source, which are not always exact repeats. Identical values can stand only once.

The source of these data is paper PMC5264588, “ER residency of the ceramide phosphoethanolamine synthase SMSr relies on homotypic oligomerization mediated by its SAM domain” (Scientific Reports, 2017).

B1: V5/His6-tagged SMSr (enzyme, human, UniProt Q96LT4 1-415, looked up)
chain: MAGPNQLCIRRWTTKHVAVWLKDEGFFEYVDILCNKHRLDGITLLTLTEYDLRSPPLEIKVLGDIKRLMLSVRKLQKIHIDVLEEMGYNSDSPMGSMTPFISALQSTDWLCNGELSHDCDGPITDLNSDQYQYMNGKNKHSVRRLDPEYWKTILSCIYVFIVFGFTSFIMVIVHERVPDMQTYPPLPDIFLDSVPRIPWAFAMTEVCGMILCYIWLLVLLLHKHRSILLRRLCSLMGTVFLLRCFTMFVTSLSVPGQHLQCTGKIYGSVWEKLHRAFAIWSGFGMTLTGVHTCGDYMFSGHTVVLTMLNFFVTEYTPRSWNFLHTLSWVLNLFGIFFILAAHEHYSIDVFIAFYITTRLFLYYHTLANTRAYQQSRRARIWFPMFSFFECNVNGTVPNEYCWPFSKPAIMKRLIG
notes: SMSr (SAMD8), ceramide phosphoethanolamine synthase, human, UniProt Q96LT4; the cDNA was PCR amplified and cloned with a C-terminal V5/His6 tag; also called SMSr-V5; SAMD8; source: HeLa, transfected (pcDNA3.1/V5-His TOPO), in detergent extract; not shown: V5, C-terminal, kept; His6, C-terminal, kept
B2: V5/His6-tagged SMSr expressed in yeast (enzyme, human, UniProt Q96LT4 1-415, looked up)
chain: B1 chain
notes: SMSr (SAMD8), human, UniProt Q96LT4; also called SMSr-V5; pYES2.1/SMSr-V5-His TOPO; source: Saccharomyces cerevisiae IAY11, transformed (pYES2.1/SMSr-V5-His TOPO), in lysate
B3: HA-tagged SMSr^L62E/G63D/K66E (SMSr^OD) (enzyme, human, UniProt Q96LT4 1-415, looked up)
chain: B1 chain with L62E, G63D, K66E
notes: SMSr (SAMD8), human, UniProt Q96LT4, with L62E, G63D and K66E; also called oligomerization-defective triple mutant; source: HeLa (wild-type or SMSr-/-), transfected, in detergent extract; not shown: HA, C-terminal, kept
B4: HA-tagged SMSr (enzyme, human, UniProt Q96LT4 1-415, looked up)
chain: B1 chain
notes: SMSr (SAMD8), ceramide phosphoethanolamine synthase, human, UniProt Q96LT4; also called SMSr-HA; full-length SMSr-HA; source: HeLa (wild-type or SMSr-/-), transfected, in detergent extract; not shown: HA, C-terminal, kept
B5: HA-tagged SMSr^D348E (enzyme, human, UniProt Q96LT4 1-415, looked up)
chain: B1 chain with D348E
notes: SMSr (SAMD8), human, UniProt Q96LT4, with D348E; also called enzyme-dead SMSr; source: SMSr-/- HeLa, transfected, in detergent extract; not shown: HA, C-terminal, kept
B6: V5/His6-tagged SMSrΔSAM (domain or fragment, human, UniProt Q96LT4 79-415, looked up)
chain: HIDVLEEMGYNSDSPMGSMTPFISALQSTDWLCNGELSHDCDGPITDLNSDQYQYMNGKNKHSVRRLDPEYWKTILSCIYVFIVFGFTSFIMVIVHERVPDMQTYPPLPDIFLDSVPRIPWAFAMTEVCGMILCYIWLLVLLLHKHRSILLRRLCSLMGTVFLLRCFTMFVTSLSVPGQHLQCTGKIYGSVWEKLHRAFAIWSGFGMTLTGVHTCGDYMFSGHTVVLTMLNFFVTEYTPRSWNFLHTLSWVLNLFGIFFILAAHEHYSIDVFIAFYITTRLFLYYHTLANTRAYQQSRRARIWFPMFSFFECNVNGTVPNEYCWPFSKPAIMKRLIG
notes: SMSr (SAMD8), human, UniProt Q96LT4, without the first 78 N-terminal residues (SAM domain deleted); also called SMSrΔSAM-V5; SAM-domain truncation mutant; source: HeLa, transfected, in detergent extract; not shown: V5, C-terminal, kept; His6, C-terminal, kept

Data set [1] concerns the molecule itself. The data set is described as follows: SDS-resistant oligomers on SDS-PAGE of affinity-purified protein; HeLa cells transfected with one V5(/His6)-tagged construct; anti-V5 immunoprecipitates or Ni-NTA eluates, non-reducing SDS-PAGE, anti-V5 immunoblot; no cross-linker; oligomers mostly lost with 10 mM NEM in lysis or 100 mM DTT. Background: A western blot detects proteins with antibodies after separation by electrophoresis.

Data set [2] deals with the molecule itself. The data set is described as follows: cross-linking; yeast cells expressing V5/His6-tagged SMSr treated with DSP (0-50 μM, 15 min), lysed, anti-V5 immunoblot.
Data set [3] concerns the molecule itself. The data set is described as follows: cross-linking; intact HeLa cells (wild-type or SMSr-/-) treated with DSP (0-50 μM, 15 min, RT), lysed with detergent and 10 mM NEM; anti-HA or anti-V5 immunoprecipitation or Ni-NTA, immunoblot against the same tag.
The target in the data set “V5/His6-tagged SMSr” is B1. Description: co-IP; detergent extracts of HeLa cells co-transfected with HA-tagged and V5/His6-tagged constructs; anti-V5 immunoprecipitation, immunoblot with anti-V5 and anti-HA; non-reducing SDS-PAGE; no NEM named. As to conditions: partners not purified.

As to B1, the stoichiometry N (commonly a count of units in the complex or per binding partner) in data set [1] was 3 and 6. As to B2, the “stoichiometry N” value in data set [2] was 3 and 6.

B3: in data set [3], the “stoichiometry N” value is 6 and 3 and 2. Consider B4, for which the “stoichiometry N” value in data set [3] was 3 and 6; in the data set with V5/His6-tagged SMSr, 3 and 6. On to B5, for which the “stoichiometry N” value in data set [3] was 6 and 3. The same measure, in the same setting: with B6 the figure was 2.
